For test [1], the target named is recombinant hSIRPa-His (Sino Biologicals, reference 11612-H08H) (human) (UniProt P78324). Put plainly: SPR (Biacore 3000); SIRPa-His immobilised on a CM5 chip (500 RU), antibody injected; 3 min association, 10 min dissociation. For orientation: Surface plasmon resonance follows binding to a sensor surface in real time, without labels.
The target of test [2] is SIRPγ on peripheral human CD3+ T cells (human) (UniProt Q9P1W8). Put plainly: flow cytometry on peripheral human CD3+ T cells, 10 µg/ml; Exp 1 HV2. On the technique in general: Flow cytometry measures light scatter and fluorescence of single cells or particles in a stream.
The target is the same in test [3]. Put plainly: flow cytometry on peripheral human CD3+ T cells, 10 µg/ml; Exp 1 HV1.
Test [4] has as its target recombinant hSIRPa (Sino Biologicals, reference 10975-H08H) (human) (UniProt P78324). Put plainly: ELISA (ED50), immobilized hSIRPa, anti-mouse Fc detection.

“And” between values parts separate entries of the source, which are not always exact repeats. Identical values can stand only once.

The term Kd denotes a measure of binding affinity in units of concentration. One may read the koff as the rate constant with which the complex falls apart. As a reminder, the kon is the rate constant with which the complex forms. One may read the EC50 as the concentration needed to bring the measured effect to its halfway point.

SIRPγ on peripheral human CD3+ T cells (human), sequence (Q9P1W8 29-387): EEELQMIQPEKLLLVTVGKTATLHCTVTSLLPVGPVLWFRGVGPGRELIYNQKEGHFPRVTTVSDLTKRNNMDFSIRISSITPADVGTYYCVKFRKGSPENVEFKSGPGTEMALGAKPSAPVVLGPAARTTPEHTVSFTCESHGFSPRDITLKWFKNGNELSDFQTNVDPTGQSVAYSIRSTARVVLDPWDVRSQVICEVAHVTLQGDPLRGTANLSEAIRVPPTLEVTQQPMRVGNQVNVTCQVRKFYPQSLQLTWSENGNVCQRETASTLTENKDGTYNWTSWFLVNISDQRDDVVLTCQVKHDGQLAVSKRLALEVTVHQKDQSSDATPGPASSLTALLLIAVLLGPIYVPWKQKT
recombinant hSIRPa-His (Sino Biologicals, reference 11612-H08H) (human), sequence (P78324 31-370, form in doubt): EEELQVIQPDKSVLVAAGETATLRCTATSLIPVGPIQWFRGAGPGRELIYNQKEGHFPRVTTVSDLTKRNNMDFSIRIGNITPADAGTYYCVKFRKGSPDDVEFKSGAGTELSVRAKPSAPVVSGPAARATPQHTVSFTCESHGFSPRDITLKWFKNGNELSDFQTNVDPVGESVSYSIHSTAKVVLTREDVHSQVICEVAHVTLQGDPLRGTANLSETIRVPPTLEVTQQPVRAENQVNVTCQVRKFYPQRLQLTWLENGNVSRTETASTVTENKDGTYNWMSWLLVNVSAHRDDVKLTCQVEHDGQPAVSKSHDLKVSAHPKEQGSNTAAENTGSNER
recombinant hSIRPa (Sino Biologicals, reference 10975-H08H) (human), sequence (P78324 other isoform, or with tags, fused parts or gaps H08H H08H limits assumed): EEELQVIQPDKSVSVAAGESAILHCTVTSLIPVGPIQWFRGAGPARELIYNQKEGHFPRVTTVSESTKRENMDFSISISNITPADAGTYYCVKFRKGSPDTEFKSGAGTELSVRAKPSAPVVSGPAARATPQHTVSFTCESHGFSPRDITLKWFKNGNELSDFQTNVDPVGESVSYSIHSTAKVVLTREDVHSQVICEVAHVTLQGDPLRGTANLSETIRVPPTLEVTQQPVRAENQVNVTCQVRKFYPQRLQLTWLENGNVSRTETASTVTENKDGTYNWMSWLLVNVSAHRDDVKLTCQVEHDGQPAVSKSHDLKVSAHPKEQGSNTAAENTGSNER

Take “anti-SIRPa antibody SE7C2 (Santa Cruz sc-23863)”: in test [1], the Kd came to 1670 nM, the dissociation rate constant (koff) amounted to 0.01 s⁻¹ and the kon stood at 5980 M⁻¹ s⁻¹.
Turning to LSB2.20 (specific anti-SIRPγ antibody), the % of positive T-cells in test [2] is 98.4%; in test [3], 91.4%.
As for “SE5A5 (BioLegend BLE323802), antibody recognizing SIRP a/B”, in test [1], the Kd is 38.7 nM, the dissociation rate constant (koff) came out at 0.000949 s⁻¹ and the on-rate (kon) was 24500 M⁻¹ s⁻¹. Moreover, the % of positive T-cells in test [2] worked out at 7.69%. In addition, the concentration giving a half-maximal response (EC50) in test [4] is 0.16 nM and 0.024 µg/mL. Moreover, the % of positive T-cells in test [3] was found to be 3.72%.
Consider anti-SIRPb antibody B4B6, for which the values for the % of positive T-cells in test [2] and in test [3] were 0.25% and 0.87%, respectively.

(Values after US20250215108A1.)
